Measurements: patent publication US20260151499A1, “ANTIBODY DERIVATIVE AND USE THEREOF” (TSINGHUA UNIVERSITY, priority 2023, published 2026)
Residue numbers refer to the chain shown, from its start. “And” between values parts separate entries of the source, which are not always exact repeats. Equal entries are not always repeated. Where two headings read alike, the source gives them in different places.

Columns and labels:
CD73 = molecular target: T1, CD73 (Homo sapiens, UniProt P21589); test: CD73 inhibition, AMP hydrolysis, malachite green phosphate assay; format: biochemical; details: for IC50: full-length IgG1 conjugated to BN3, read-out: IC50 ± SD (nM) of Ab-BN3 for inhibition of CD73
T1 construct: His (Chis) (C); made in house; host or cells: 293 cells
T1 sequence (P21589 27-549 limits assumed): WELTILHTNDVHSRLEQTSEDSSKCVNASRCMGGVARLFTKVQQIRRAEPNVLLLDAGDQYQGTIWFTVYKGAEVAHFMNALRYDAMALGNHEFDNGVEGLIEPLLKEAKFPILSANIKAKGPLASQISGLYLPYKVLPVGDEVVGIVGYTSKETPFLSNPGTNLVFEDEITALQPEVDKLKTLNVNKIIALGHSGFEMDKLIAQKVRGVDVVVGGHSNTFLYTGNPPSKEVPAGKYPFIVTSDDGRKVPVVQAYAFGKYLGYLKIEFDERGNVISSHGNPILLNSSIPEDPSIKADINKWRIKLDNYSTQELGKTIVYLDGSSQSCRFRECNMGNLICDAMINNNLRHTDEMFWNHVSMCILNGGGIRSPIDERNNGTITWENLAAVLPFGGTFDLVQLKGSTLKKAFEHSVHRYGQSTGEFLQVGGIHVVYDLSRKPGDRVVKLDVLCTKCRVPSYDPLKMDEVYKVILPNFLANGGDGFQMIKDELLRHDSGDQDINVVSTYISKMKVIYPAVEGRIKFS

NaV1.7 = molecular target: T2, NaV1.7 (Homo sapiens, UniProt Q15858); test: Whole-cell patch clamp, HEK293-NaV1.7 cells; format: cell-based
T2 construct: expressed in transfected cells; host or cells: HEK293

NaV1.2 = molecular target: T3, NaV1.2 (Homo sapiens, UniProt Q99250); test: Whole-cell patch clamp, HEK293-NaV1.2 cells; format: cell-based; details: for inhibitory activity against NaV1.2 (in words): tested up to 500 nM
T3 construct: expressed in transfected cells; host or cells: HEK293

[1] = non-competitive screening clones, 15 min incubation, read-out: IC50 ± SEM (nM) of Ab-PEG3-ASF in inhibiting NaV1.7
[2] = competitive screening clones, read-out: IC50 ± SEM of NaV1.7-selective Ab-ASF

T2 sequence (Q15858 whole entry): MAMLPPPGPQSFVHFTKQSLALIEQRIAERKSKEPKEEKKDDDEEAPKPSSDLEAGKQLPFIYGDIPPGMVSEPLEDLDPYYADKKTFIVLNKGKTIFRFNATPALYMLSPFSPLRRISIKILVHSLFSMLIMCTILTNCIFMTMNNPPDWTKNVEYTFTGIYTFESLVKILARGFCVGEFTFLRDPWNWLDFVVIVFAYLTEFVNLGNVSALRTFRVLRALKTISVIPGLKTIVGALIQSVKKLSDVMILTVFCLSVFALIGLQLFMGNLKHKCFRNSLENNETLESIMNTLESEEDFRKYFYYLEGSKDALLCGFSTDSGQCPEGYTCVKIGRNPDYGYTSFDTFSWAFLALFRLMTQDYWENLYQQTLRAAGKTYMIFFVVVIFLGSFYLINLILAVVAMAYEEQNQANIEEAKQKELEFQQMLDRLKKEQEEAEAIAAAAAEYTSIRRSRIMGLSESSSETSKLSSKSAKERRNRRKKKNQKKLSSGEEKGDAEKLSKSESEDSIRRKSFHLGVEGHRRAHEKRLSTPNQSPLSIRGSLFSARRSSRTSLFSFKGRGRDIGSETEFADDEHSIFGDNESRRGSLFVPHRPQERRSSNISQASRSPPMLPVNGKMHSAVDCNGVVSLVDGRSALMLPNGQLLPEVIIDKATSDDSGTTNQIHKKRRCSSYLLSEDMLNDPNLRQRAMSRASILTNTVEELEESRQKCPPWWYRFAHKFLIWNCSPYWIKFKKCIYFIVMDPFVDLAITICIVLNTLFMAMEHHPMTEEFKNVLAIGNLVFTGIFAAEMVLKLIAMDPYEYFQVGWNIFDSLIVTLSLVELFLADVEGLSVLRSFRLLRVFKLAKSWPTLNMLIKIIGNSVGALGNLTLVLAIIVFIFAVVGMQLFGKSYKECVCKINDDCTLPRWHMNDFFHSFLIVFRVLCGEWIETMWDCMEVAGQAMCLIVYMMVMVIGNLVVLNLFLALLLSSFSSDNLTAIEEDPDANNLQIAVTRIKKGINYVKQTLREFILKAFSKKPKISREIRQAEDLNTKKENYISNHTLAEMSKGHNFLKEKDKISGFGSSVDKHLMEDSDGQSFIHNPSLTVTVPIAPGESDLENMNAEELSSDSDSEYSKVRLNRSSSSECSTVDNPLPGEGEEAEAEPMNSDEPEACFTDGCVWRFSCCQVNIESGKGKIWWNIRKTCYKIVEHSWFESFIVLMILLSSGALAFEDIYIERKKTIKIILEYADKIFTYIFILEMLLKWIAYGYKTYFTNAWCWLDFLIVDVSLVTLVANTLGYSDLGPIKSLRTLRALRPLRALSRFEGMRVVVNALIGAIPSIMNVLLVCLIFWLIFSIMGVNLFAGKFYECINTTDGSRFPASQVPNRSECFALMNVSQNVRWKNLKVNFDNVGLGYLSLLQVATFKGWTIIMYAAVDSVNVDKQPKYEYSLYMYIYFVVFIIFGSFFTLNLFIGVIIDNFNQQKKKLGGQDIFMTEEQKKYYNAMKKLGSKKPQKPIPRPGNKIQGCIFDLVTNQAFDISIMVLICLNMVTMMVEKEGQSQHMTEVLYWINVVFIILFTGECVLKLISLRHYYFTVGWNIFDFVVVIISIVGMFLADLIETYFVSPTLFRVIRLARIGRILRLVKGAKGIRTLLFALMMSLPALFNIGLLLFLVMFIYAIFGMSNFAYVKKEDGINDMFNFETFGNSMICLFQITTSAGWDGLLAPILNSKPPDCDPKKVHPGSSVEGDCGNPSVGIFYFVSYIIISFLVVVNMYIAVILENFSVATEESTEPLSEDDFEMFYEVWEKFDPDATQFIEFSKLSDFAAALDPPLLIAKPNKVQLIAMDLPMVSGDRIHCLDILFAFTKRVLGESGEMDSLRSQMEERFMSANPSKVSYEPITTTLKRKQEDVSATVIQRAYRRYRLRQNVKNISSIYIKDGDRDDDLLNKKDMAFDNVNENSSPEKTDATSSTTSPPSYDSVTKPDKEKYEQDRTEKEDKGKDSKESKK
T3 sequence (Q99250 whole entry): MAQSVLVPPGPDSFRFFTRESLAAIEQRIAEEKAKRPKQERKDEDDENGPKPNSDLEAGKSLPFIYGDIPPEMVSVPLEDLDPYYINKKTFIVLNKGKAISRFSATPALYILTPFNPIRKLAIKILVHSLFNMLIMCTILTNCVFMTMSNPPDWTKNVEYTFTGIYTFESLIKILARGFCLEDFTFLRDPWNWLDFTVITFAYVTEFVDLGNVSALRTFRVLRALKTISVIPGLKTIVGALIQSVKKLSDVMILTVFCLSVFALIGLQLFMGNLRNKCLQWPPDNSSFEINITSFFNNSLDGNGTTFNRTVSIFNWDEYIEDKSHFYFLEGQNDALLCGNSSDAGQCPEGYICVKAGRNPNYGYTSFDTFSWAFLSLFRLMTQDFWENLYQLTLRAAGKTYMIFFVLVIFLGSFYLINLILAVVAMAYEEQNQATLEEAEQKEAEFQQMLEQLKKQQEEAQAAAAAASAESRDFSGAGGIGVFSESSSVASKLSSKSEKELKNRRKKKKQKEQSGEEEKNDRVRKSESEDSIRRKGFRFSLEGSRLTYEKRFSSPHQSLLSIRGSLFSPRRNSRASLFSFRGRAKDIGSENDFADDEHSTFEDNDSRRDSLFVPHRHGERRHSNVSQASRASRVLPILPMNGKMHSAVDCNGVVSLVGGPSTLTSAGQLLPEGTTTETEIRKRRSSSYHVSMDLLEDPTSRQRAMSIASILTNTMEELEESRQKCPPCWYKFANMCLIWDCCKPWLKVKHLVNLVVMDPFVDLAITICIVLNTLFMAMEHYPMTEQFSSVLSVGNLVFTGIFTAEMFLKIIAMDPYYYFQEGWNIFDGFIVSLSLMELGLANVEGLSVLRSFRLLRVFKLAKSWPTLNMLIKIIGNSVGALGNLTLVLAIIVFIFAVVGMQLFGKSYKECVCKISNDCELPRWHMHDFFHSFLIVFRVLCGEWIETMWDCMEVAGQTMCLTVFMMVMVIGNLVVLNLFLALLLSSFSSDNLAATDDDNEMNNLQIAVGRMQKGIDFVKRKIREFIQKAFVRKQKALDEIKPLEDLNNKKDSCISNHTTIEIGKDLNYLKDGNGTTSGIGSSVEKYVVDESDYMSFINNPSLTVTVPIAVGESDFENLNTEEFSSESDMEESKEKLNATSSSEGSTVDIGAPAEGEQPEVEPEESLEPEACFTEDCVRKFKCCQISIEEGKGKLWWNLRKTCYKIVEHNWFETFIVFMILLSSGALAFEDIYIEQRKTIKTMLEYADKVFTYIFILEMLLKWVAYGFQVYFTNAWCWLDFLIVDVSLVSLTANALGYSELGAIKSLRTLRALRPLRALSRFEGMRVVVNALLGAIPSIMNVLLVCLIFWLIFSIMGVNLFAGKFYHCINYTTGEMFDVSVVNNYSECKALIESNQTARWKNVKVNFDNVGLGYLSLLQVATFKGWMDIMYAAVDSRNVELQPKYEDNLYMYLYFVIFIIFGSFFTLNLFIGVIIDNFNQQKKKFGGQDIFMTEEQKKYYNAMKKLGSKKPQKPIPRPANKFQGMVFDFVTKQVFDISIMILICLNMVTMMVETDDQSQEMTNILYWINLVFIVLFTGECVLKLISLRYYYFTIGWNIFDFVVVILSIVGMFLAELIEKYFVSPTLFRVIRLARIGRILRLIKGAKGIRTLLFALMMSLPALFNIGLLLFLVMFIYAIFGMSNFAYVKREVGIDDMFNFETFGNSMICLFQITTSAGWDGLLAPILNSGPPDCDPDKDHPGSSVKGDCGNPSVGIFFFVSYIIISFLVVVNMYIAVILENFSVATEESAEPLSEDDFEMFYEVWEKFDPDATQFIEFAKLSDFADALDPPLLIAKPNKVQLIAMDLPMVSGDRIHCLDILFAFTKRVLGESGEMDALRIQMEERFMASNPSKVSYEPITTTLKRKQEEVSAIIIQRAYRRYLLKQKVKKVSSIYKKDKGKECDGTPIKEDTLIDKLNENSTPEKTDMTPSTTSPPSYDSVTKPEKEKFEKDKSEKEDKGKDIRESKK

B1: 6D11: CD73 antibody clone, VH SEQ ID NO: 81, VL SEQ ID NO: 91 (antibody, V domains shown)
VH: EVQLVESGGGLVQPGGSLRLSCAASGFTFSGHWMHWVRQAPGKGLEWIGSIYYSGSTYYNPSLKSRVTISADTSKNTAYLQMNSLRAEDTAVYYCARDRGWLQFDYWGQGTLVTVSS
VL: DIQMTQSPSSLSASVGDRVTITCRASQNIGTYLAWYQQKPGKAPKLLIYDASNLETGVPSRFSGSRSGTDFTLTISSLQPEDFATYYCQQXYTTPPTFGQGTKLEI
modifications: VARIANT 91 natural amino acid or unnatural amino acid
B1 was tested, and the “inhibitory activity against CD73 (in words)” value (CD73) was “weak inhibitory trend” and the IC50 (CD73) was 0.464 nM.

B2: 10A7: CD73 antibody clone, VH SEQ ID NO: 73, VL SEQ ID NO: 83 (antibody, V domains shown)
VH: EVQLVESGGGLVQPGGSLRLSCAASGFAFSSYSMSWVRQAPGKGLEWIGSIYYSGSTYYNPSLKSRVTISADTSKNTAYLQMNSLRAEDTAVYYCARNSGFETLDYWGQGTLVTVSS
VL: B1 VL with N28G, G30S, T31R, Y32W, K45N, D50G, N53T, E55Q, T56S, S60P
modifications: VARIANT 91 natural amino acid or unnatural amino acid
With B2 the IC50 (CD73) was 0.607 nM.

B3: 14H4-PEG3-ASF: antibody 14H4 conjugated with ASF-PEG3-DBCO (conjugate)
VH: EVQLVESGGGLVQPGGSLRLSCAASGFSFSKFWMHWVRQAPGKGLEWVAFMAHDESNKNYADSVKGRFTISADTSKNTAYLQMNSLRAEDTAVYYCARDKVCNTFDIWGQGTLVTVSS
VL: B1 VL with N28S, G30S, T31S, Y32D, A34N, D50R, S52T, N53F, T56S
modifications: not fully specified; non-natural residues
notes: antibody 14H4 conjugated with ASF-PEG3-DBCO
With B3 the “inhibition rate of NaV1.7 at 100 nM” value (NaV1.7; 100 nM) was “about 30%”, the “inhibition rate of NaV1.7 at 500 nM” value (NaV1.7; 500 nM) was “about 40%” and the “inhibitory activity against NaV1.2 at 100 nM (in words)” value (NaV1.2; 100 nM Ab-ASF) was “near-complete inhibition”.

B4: F3-PEG3-ASF: IgG1 Ab-UAA F3 conjugated with ASF-PEG3-DBCO (conjugate)
VH: EVQLVESGGGLVQPGGSLRLSCAASGFTFSGHWMHWVRQAPGKGLEWVASISDSSSYIYYADSVRGRFTISRDNAKKTLYLQMNSLRAEDTAVYYCARDYEGATRAADYWGQGTLVTVSS
VL: B1 VL with N28V, T31N, Y32D, A34G, A51V, L54V, E55Q
modifications: non-natural residues
notes: IgG1 Ab-UAA F3 conjugated with ASF-PEG3-DBCO
With B4 the IC50 (NaV1.7; [1]) was 2.69 ± 0.687 nM and the “inhibitory activity against NaV1.2 (in words)” value (NaV1.2) was “no inhibitory activity”.

B5: ABN3-2G: CD73 antibody clone, VH SEQ ID NO: 77, VL SEQ ID NO: 87 (antibody, V domains shown)
VH: EVQLVESGGGLVQPGGSLRLSCAASGITFGSYTMSWVRQAPGKGLEWIGTVHYTGKTFYSPSLKSRVTISADTSKNTAYLQMNSLRAEDTAVYYCARGRDFGEPPYVRAFDIWGQGTLVTVSS
VL: B1 VL with R24Q, Q27H, N28D, G30S, T31K, A34N
modifications: not fully specified; VARIANT 91 natural amino acid or unnatural amino acid
B5 gave an IC50 (CD73) of 0.565 nM.

B6: 15F9-PEG3-ASF: Ab-UAA 15F9 conjugated to ASF-PEG3-DBCO (conjugate)
VH: EVQLVESGGGLVQPGGSLRLSCAASGFTFSKFWMHWVRQAPGKGLEWVSSISSSSSYIYYADSVKGRFTISADTSKNTAYLQMNSLRAEDTAVYYCARDPISTGAFDIWGQGTLVTVSS
VL: B1 VL with N28S, G30S, T31S, Y32W, N53S, T56S
modifications: non-natural residues
notes: Ab-UAA 15F9 conjugated to ASF-PEG3-DBCO
In the case of B6, the “inhibitory activity against NaV1.7 at 10 nM (in words)” value (NaV1.7; 10 nM Ab-PEG3-ASF) is reported as “essentially no inhibitory activity”.

B7: H3-PEG3-ASF: IgG1 Ab-UAA H3 conjugated with ASF-PEG3-DBCO (conjugate)
VH: EVQLVESGGGLVQPGGSLRLSCAASGFTFSDYWISWVRQAPGKGLEWIGNVYYSGNAYYNPSLESRVTISADTSKNTAYLQMNSLRAEDTAVYYCARNTGFETLDNWGQGTLVTVSS
VL: B1 VL with N28S, G30S, T31S, Y32W, K45N, I48M, D50A, N53S, E55Q, T56S
modifications: non-natural residues
notes: IgG1 Ab-UAA H3 conjugated with ASF-PEG3-DBCO
For B7, the IC50 (NaV1.7; [1]) was 1.13 ± 0.191 nM.

B8: 10A7-Fab-BN3: papain-derived Fab of 10A7 conjugated with BN3, monovalent (conjugate)
VH: B2 VH
VL: B1 VL with N28G, G30S, T31R, Y32W, K45N, D50G, N53T, E55Q, T56S, S60P
modifications: non-natural residues
In the case of B8, the “inhibitory activity against CD73 (in words)” value (CD73) is reported as “retained strong inhibitory activity”.

B9: 15F7-PEG3-ASF: Ab-UAA 15F7 conjugated to ASF-PEG3-DBCO (conjugate)
VH: EVQLVESGGGLVQPGGSLRLSCAASGFTFSGHWMHWVRQAPGKGLEWVSAISGSGGSTYYADSVKGRFTISADTSKNTAYLQMNSLRAEDTAVYYCAREVTMVRGVTDAFDIWGQGTLVTVSS
VL: B1 VL with N28G, G30S, T31S, Y32D, A34G, A51V, L54V, E55Q
modifications: non-natural residues
notes: Ab-UAA 15F7 conjugated to ASF-PEG3-DBCO
With B9 the “inhibition rate of NaV1.7 at 10 nM” value (NaV1.7; 10 nM Ab-PEG3-ASF) was “about 60%” and the IC50 (NaV1.7; [2]) was 6.48 nM and 6.5 nM.

B10: G3-PEG3-ASF: IgG1 Ab-UAA G3 conjugated with ASF-PEG3-DBCO (conjugate)
VH: EVQLVESGGGLVQPGGSLRLSCAASGFTFSASYMSWVRQAPGKGLEWIGSIYYSGSTYYNPSLKSRVTISADTSKNTAYLQMNSLRAEDTAVYYCARGAPYYEGAFDIWGQGTLVTVSS
VL: B1 VL with N28Y, G30S, A34N, L46V, Y49S, D50K, A51T, N53Y, T56S
modifications: non-natural residues
notes: IgG1 Ab-UAA G3 conjugated with ASF-PEG3-DBCO
In the case of B10, the IC50 (NaV1.7; [1]) is reported as 1.88 ± 0.394 nM, the “inhibition of NaV1.2 at 500 nM” value (NaV1.2; highest tested concentration of 500 nM) is reported as “approximately 60%” and the “inhibitory activity against NaV1.2 (in words)” value (NaV1.2) is reported as “only weak inhibitory activity”.

B11: 15A10-PEG3-ASF: Ab-UAA 15A10 conjugated to ASF-PEG3-DBCO (conjugate)
VH: EVQLVESGGGLVQPGGSLRLSCAASGFPFSGHWMHWVRQAPGKGLEWVSGISGTGATSHYADSVKGRFTISADTSKNTAYLQMNSLRAEDTAVYYCAREVITAASTDAFDLWGQGTLVTVSS
VL: B1 VL with N28S, T31S, Y32S, A34H, K45T, L46V, D50A, N53S, E55Q
modifications: not fully specified; non-natural residues
notes: Ab-UAA 15A10 conjugated to ASF-PEG3-DBCO
B11 gave an IC50 (NaV1.7; [2]) of 0.138 ± 0.0414 nM.

B12: A4-PEG3-ASF: IgG1 Ab-UAA A4 conjugated with ASF-PEG3-DBCO (conjugate)
VH: EVQLVESGGGLVQPGGSLRLSCAASGFTFSGHWMHWVRQAPGKGLEWVSGISGSGGSTYYADSVKGRFTISADTSKNTAYLQMNSLRAEDTAVYYCARELTMATTTDAFDIWGQGTLVTVSS
VL: DIQMTQSPSSLSASVGDRVTITCQASQDIRNDLNWYQQKPGKAPKSLIYAASRLQSGVPSRFSGSRSGTDFTLTISSLQPEDFATYYCQQXYTTPPTFGQGTKLEI
modifications: non-natural residues
notes: IgG1 Ab-UAA A4 conjugated with ASF-PEG3-DBCO
In the case of B12, the IC50 (NaV1.7; [1]) is reported as 1.22 ± 0.534 nM.

B13: 15C12-PEG3-ASF: Ab-UAA 15C12 conjugated to ASF-PEG3-DBCO (conjugate)
VH: B12 VH with G50A, T104S, I111F
VL: B12 VL with R30S, D32S, K45N, S46L, A51T, R53N
modifications: not fully specified; non-natural residues
notes: Ab-UAA 15C12 conjugated to ASF-PEG3-DBCO
In the case of B13, the IC50 (NaV1.7; [2]) is reported as 0.0395 ± 0.00968 nM.
